For 5 molecules, Kd results are on record in publication PMC8583712, “p53 Transactivation Domain Mediates Binding and Phase Separation with Poly-PR/GR” (International Journal of Molecular Sciences, 2021).

Where no end group is shown, it is not given here. The star is where a group is joined. FITC = O=C1OC2(c3ccc(O)cc3Oc3cc(O)ccc32)c2ccc(NC(=S)*)cc21

The chains are these.
B1: N-terminally fluorescein isothiocyanate (FITC)-labelled GR25 (peptide)
peptide: {FITC}-GRGRGRGRGRGRGRGRGRGRGRGRGRGRGRGRGRGRGRGRGRGRGRGRGR
notes: C9orf72 repeat-derived dipeptide repeat; also called FITC-labeled GR25; FITC-GR25; source: synthetic peptide (Peptide Specialty Laboratories GmbH, HPLC-purified)
B2: N-terminally fluorescein isothiocyanate (FITC)-labelled PR25 (peptide)
peptide: {FITC}-PRPRPRPRPRPRPRPRPRPRPRPRPRPRPRPRPRPRPRPRPRPRPRPRPR
notes: C9orf72 repeat-derived dipeptide repeat; also called FITC-labeled PR25; FITC-PR25; source: synthetic peptide (Peptide Specialty Laboratories GmbH, HPLC-purified)
B3: p53^TAD2 (human p53 transactivation domain 2, amino acids 37 to 57) (domain or fragment, UniProt P04637 37-57, looked up)
chain: SQAMDDLMLSPDDIEQWFTED
notes: human p53, amino acids 37 to 57 (TAD2 construct); 15N-labelled for NMR, unlabelled for fluorescence polarisation; source: E. coli BL21-DE3 Star, purified (lysis in 6 M urea, Ni-NTA, TEV cleavage, second Ni-NTA, SEC on Superdex Peptide)

One experiment concerns the target T1, p53^TAD2 (Homo sapiens, UniProt P04637).
T1 construct: amino acids 37 to 57 (p53 ^TAD2); ZZ-His6 (cleaved yes); made in house; host or cells: E. coli BL21-DE3 Star
The experiment in a line: Fluorescence polarization, FITC-labeled PR25/GR25 with p53^TAD2. It is filed as binding. As to conditions: 100 nM FITC-labelled (N-terminal) peptide, 20 mM Hepes pH 7.0, 50 mM NaCl, 2 mM TCEP, 0.04% NaN3, room temperature, 35 µL, λex 495/λem 530 nm; 1:1 complex; mean of three experiments, errors = SD of the fit; read-out: equilibrium dissociation constant (Kd), p53^TAD2. The source says:
Measurements were taken at room temperature in black 384-well plates using a ClarioStar Plus (BMG labtech, Ortenberg, Germany) spectrophotometer. Filters were selected as a function of FITC optical characteristics (λex= 495 nm, and λem= 530 nm). […] The polarization data were fitted using graphpad prism 8 with the following equation:(3) P=P0+Pmax×L/L + Kd
Here, P0 represents the polarization of FITC-labelled peptides in absence of p53^1−94 and p53^TAD2, and Pmax to the highest polarization of the binding curve corresponding to the saturation of the interaction. L corresponds to the concentration of p53^1–94 and p53^TAD2 proteins, and Kd is the dissociation constant.

Experiment [1] has as its target T2, p53^1-94 (human p53 residues 1 to 94: transactivation domains 1 and 2 and poly-proline region) (human, UniProt P04637 1-94).
T2 construct: human p53, amino acids 1 to 94; 15N- or 13C,15N-labelled for NMR, unlabelled for fluorescence polarisation; also called N-terminal disordered region; source: E. coli BL21-DE3 Star, purified (lysis in 6 M urea, Ni-NTA, TEV cleavage, second Ni-NTA, SEC on Superdex 75 Increase)
The experiment in a line: fluorescence polarisation; 100 nM FITC-labelled PR25/GR25 with increasing concentrations of p53 1-94 or p53 TAD2; room temperature; 20 mM Hepes pH 7.0, 50 mM NaCl, 2 mM TCEP, 0.04% NaN3; fit assuming a 1:1 complex. To be noted: both partners purified. A general note: Polarisation of emitted light reports the rotation of a fluorescent probe.

Experiment [2] concerns the target B2. Described as above. As to conditions: both partners purified.
Experiment [3] has as its target B1. The description is as above. As to conditions: both partners purified.

T2 sequence (P04637 1-94): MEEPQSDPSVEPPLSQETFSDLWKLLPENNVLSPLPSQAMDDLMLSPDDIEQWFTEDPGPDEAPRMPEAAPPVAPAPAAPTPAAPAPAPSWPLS

The term Kd denotes the equilibrium constant for the complex coming apart. As for `N=C(N)NCCC[C@H](NC(=O)CNC(=O)[C@H](CCCNC(=N)N)NC(=O)CNC(=O)[C@H](CCCNC(=N)N)NC(=O)CNC(=O)[C@H](CCCNC(=N)N)NC(=O)CNC(=O)[C@H](CCCNC(=N)N)NC(=O)CNC(=O)[C@H](CCCNC(=N)N)NC(=O)CNC(=O)[C@H](CCCNC(=N)N)NC(=O)CNC(=O)[C@H](CCCNC(=N)N)NC(=O)CNC(=O)[C@H](CCCNC(=N)N)NC(=O)CNC(=O)[C@H](CCCNC(=N)N)NC(=O)CNC(=O)[C@H](CCCNC(=N)N)NC(=O)CNC(=O)[C@H](CCCNC(=N)N)NC(=O)CNC(=O)[C@H](CCCNC(=N)N)NC(=O)CNC(=O)[C@H](CCCNC(=N)N)NC(=O)CNC(=O)[C@H](CCCNC(=N)N)NC(=O)CNC(=O)[C@H](CCCNC(=N)N)NC(=O)CNC(=O)[C@H](CCCNC(=N)N)NC(=O)CNC(=O)[C@H](CCCNC(=N)N)NC(=O)CNC(=O)[C@H](CCCNC(=N)N)NC(=O)CNC(=O)[C@H](CCCNC(=N)N)NC(=O)CNC(=O)[C@H](CCCNC(=N)N)NC(=O)CNC(=O)[C@H](CCCNC(=N)N)NC(=O)CNC(=O)[C@H](CCCNC(=N)N)NC(=O)CNC(=O)[C@H](CCCNC(=N)N)NC(=O)CNC(=O)[C@H](CCCNC(=N)N)NC(=O)CN)C(=O)O` [GR25], the Kd at p53^TAD2 is 2.85 ± 0.51 µM. The same measure, in the same setting: in the case of `N=C(N)NCCC[C@H](NC(=O)[C@@H]1CCCN1C(=O)[C@H](CCCNC(=N)N)NC(=O)[C@@H]1CCCN1C(=O)[C@H](CCCNC(=N)N)NC(=O)[C@@H]1CCCN1C(=O)[C@H](CCCNC(=N)N)NC(=O)[C@@H]1CCCN1C(=O)[C@H](CCCNC(=N)N)NC(=O)[C@@H]1CCCN1C(=O)[C@H](CCCNC(=N)N)NC(=O)[C@@H]1CCCN1C(=O)[C@H](CCCNC(=N)N)NC(=O)[C@@H]1CCCN1C(=O)[C@H](CCCNC(=N)N)NC(=O)[C@@H]1CCCN1C(=O)[C@H](CCCNC(=N)N)NC(=O)[C@@H]1CCCN1C(=O)[C@H](CCCNC(=N)N)NC(=O)[C@@H]1CCCN1C(=O)[C@H](CCCNC(=N)N)NC(=O)[C@@H]1CCCN1C(=O)[C@H](CCCNC(=N)N)NC(=O)[C@@H]1CCCN1C(=O)[C@H](CCCNC(=N)N)NC(=O)[C@@H]1CCCN1C(=O)[C@H](CCCNC(=N)N)NC(=O)[C@@H]1CCCN1C(=O)[C@H](CCCNC(=N)N)NC(=O)[C@@H]1CCCN1C(=O)[C@H](CCCNC(=N)N)NC(=O)[C@@H]1CCCN1C(=O)[C@H](CCCNC(=N)N)NC(=O)[C@@H]1CCCN1C(=O)[C@H](CCCNC(=N)N)NC(=O)[C@@H]1CCCN1C(=O)[C@H](CCCNC(=N)N)NC(=O)[C@@H]1CCCN1C(=O)[C@H](CCCNC(=N)N)NC(=O)[C@@H]1CCCN1C(=O)[C@H](CCCNC(=N)N)NC(=O)[C@@H]1CCCN1C(=O)[C@H](CCCNC(=N)N)NC(=O)[C@@H]1CCCN1C(=O)[C@H](CCCNC(=N)N)NC(=O)[C@@H]1CCCN1C(=O)[C@H](CCCNC(=N)N)NC(=O)[C@@H]1CCCN1C(=O)[C@H](CCCNC(=N)N)NC(=O)[C@@H]1CCCN1)C(=O)O` [PR25] it was 3.64 ± 1.16 µM. In experiment [1], B1 yielded a Kd of 430 nM. Same read-out and setting: with B2 the figure was 1840 nM. For the molecule B3, the Kd amounted to 3.64 µM in experiment [2] and 2850 nM in experiment [3].
